Target: T1, human carbonic anhydrase XII (CA12) on A549 lung cancer cells (human, UniProt O43570 25-354)
T1 construct: whole, on cells; No recombinant protein was used; also called CA-XII; CA XII
Test: flow cytometry on A549 cells, serial dilution, Cy5-labeled donkey anti-human IgG secondary, pH 7.4
Procedure: 50.000 A549 cells were incubated with a serial dilution of Monomers or Dimers (6A10). After washing, cells were incubated with a Cy5-labeled secondary antibody (donkey anti-human IgG light and heavy chain). Binding of the secondary antibody was analyzed with a BD FACSCanto and the DIVA software. RU=relative light units.
After washing, cells were incubated with a Cy5-labeled secondary antibody (donkey anti-human IgG light and heavy chain). Binding of the secondary antibody was analyzed with a BD FACSCanto and the DIVA software. RU=relative light units.
CA12-positive A549 cells were incubated with different amounts of Fab6A10 dimers or Fab6A 10 monomers at the indicated pH, followed by an incubation of a suitable Cy5-labeled secondary antibody at neutral pH (approx. 7.2).

T1 sequence (O43570 25-354): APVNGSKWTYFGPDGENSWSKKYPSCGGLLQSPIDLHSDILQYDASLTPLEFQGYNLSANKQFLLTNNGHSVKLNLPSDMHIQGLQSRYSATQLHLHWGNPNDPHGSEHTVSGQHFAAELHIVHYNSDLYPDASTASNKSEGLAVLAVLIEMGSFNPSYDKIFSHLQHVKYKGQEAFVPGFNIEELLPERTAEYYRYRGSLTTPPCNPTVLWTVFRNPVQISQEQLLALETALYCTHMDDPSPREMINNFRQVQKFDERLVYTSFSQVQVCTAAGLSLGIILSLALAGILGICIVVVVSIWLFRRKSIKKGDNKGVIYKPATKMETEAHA

B1: Fab6A10 dimer (other)
heavy: QVQLKESGPGLVQPSETLSLTCTVSGFSLTTYSVSWVRQPSGKGPEWMGRMWYDGDTVYNSALKSRLSISRDTSKNQVFLKMNSLETDETGTYYCTRDFGYFDGSSPFDYWGQGVMVTVSSASTKGPSVFPLAPSSKSTSGGTAALGCLVKDYFPEPVTVSWNSGALTSGVHTFPAVLQSSGLYSLSSVVTVPSSSLGTQTYICNVNHKPSNTKVDKKVEPKSCDKTHT
light: RCPVDIVLTQSPATLSVTPGESVSLSCRASQGISTSIHWYQQKSNESPRLLIKFASQSISGIPSRFSGSGSGTDFTLSINRVESEDFSVYFCQQTYSLPYTFGAGTKLELKRTVAAPSVFIFPPSDEQLKSGTASVVCLLNNFYPREAKVQWKVDNALQSGNSQESVTEQDSKDSTYSLSSTLTLSKADYEKHKVYACEVTHQGLSSPVTKSFNRGEC
modifications: additional non-naturally occurring cysteine at the N-terminus of the VL region (N-terminus RCPVDIVLTQ..., SEQ ID NO: 18) forms a disulfide bond with the same cysteine of the second Fab monomer
notes: also called 6A10 Fab dimers; 6A10Fab dimers
binding result: binds

— US20240360195A1 (HELMHOLTZ ZENTRUM M NCHEN DEUTSCHES FORSCHUNGSZENTRUM F R …, published 2024)
